For three molecules, β-gal expression results are on record in article PMC3499415, “The Human Cytomegalovirus DNA Polymerase Processivity Factor UL44 Is Modified by SUMO in a DNA-Dependent Manner” (PLoS ONE, 2012).

B1: HCMV UL44 (DNA polymerase processivity factor), full-length, yeast two-hybrid fusion, P16790 1-433 (natural protein)
chain: MDRKTRLSEPPTLALRLKPYKTAIQQLRSVIRALKENTTVTFLPTPSLILQTVRSHCVSKITFNSSCLYITDKSFQPKTINNSTPLLGNFMYLTSSKDLTKFYVQDISDLSAKISMCAPDFNMEFSSACVHGQDIVRESENSAVHVDLDFGVVADLLKWIGPHTRVKRNVKKAPCPTGTVQILVHAGPPAIKFILTNGSELEFTANNRVSFHGVKNMRINVQLKNFYQTLLNCAVTKLPCTLRIVTEHDTLLYVASRNGLFAVENFLTEEPFQRGDPFDKNYVGNSGKSRGGGGGGGSLSSLANAGGLHDDGPGLDNDLMNEPMGLGGLGGGGGGGGKKHDRGGGGGSGTRKMSSGGGGGDHDHGLSSKEKYEQHKITSYLTSKGGSGGGGGGGGGGLDRNSGNYFNDAKEESDSEDSVTFEFVPNTKKQKCG
B2: HCMV UL44 (DNA polymerase processivity factor), full-length, yeast two-hybrid fusion (natural protein)
chain: B1 chain
notes: also called LexA-UL44; GAD-UL44; source: yeast two-hybrid fusion (S. cerevisiae L40)
B3: HCMV UL54 (DNA polymerase catalytic subunit), GAD fusion (enzyme)
chain: MFFNPYLSGGVTGGAVAGGRRQRSQPGSAQGSGKRPPQKQFLQIVPRGVMFDGQTGLIKHKTGRLPLMFYREIKHLLSHDMVWPCPWRETLVGRVVGPIRFHTYDQTDAVLFFDSPENVSPRYRQHLVPSGNVLRFFGATEHGYSICVNVFGQRSYFYCEYSDTDRLREVIASVGELVPEPRTPYAVSVTPATKTSIYGYGTRPVPDLQCVSISNWTMARKIGEYLLEQGFPVYEVRVDPLTRLVIDRRITTFGWCSVNRYDWRQQGRASTCDIEVDCDVSDLVAVPDDSSWPRYRCLSFDIECMSGEGGFPCAEKSDDIVIQISCVCYETGGNTAVDQGIPNGNDGRGCTSEGVIFGHSGLHLFTIGTCGQVGPDVDVYEFPSEYELLLGFMLFFQRYAPAFVTGYNINSFDLKYILTRLEYLYKVDSQRFCKLPTAQGGRFFLHSPAVGFKRQYAAAFPSASHNNPASTAATKVYIAGSVVIDMYPVCMAKTNSPNYKLNTMAELYLRQRKDDLSYKDIPRCFVANAEGRAQVGRYCLQDAVLVRDLFNTINFHYEAGAIARLAKIPLRRVIFDGQQIRIYTSLLDECACRDFILPNHYSKGTTVPETNSVAVSPNAAIISTAAVPGDAGSVAAMFQMSPPLQSAPSSQDGVSPGSGSNSSSSVGVFSVGSGSSGGVGVSNDNHGAGGTAAVSYQGATVFEPEVGYYNDPVAVFDFASLYPSIIMAHNLCYSTLLVPGGEYPVDPADVYSVTLENGVTHRFVRASVRVSVLSELLNKWVSQRRAVRECMRECQDPVRRMLLDKEQMALKVTCNAFYGFTGVVNGMMPCLPIAASITRIGRDMLERTARFIKDNFSEPCFLHNFFNQEDYVVGTREGDSEESSALPEGLETSSGGSNERRVEARVIYGDTDSVFVRFRGLTPQALVARGPSLAHYVTACLFVEPVKLEFEKVFVSLMMICKKRYIGKVEGASGLSMKGVDLVRKTACEFVKGVTRDVLSLLFEDREVSEAAVRLSRLSLDEVKKYGVPRGFWRILRRLVQARDDLYLHRVRVEDLVLSSVLSKDISLYRQSNLPHIAVIKRLAARSEELPSVGDRVFYVLTAPGVRTAPQGSSDNGDSVTAGVVSRSDAIDGTDDDADGGGVEESNRRGGEPAKKRARKPPSAVCNYEVAEDPSYVREHGVPIHADKYFEQVLKAVTNVLSPVFPGGETARKDKFLHMVLPRRLHLEPAFLPYSVKAHECC
notes: also called GAD-UL54; source: yeast two-hybrid fusion (S. cerevisiae L40)

Common to all, as to experiment: two-hybrid
Assay [1] deals with T1, HCMV UL44 (DNA polymerase processivity factor), full-length, yeast two-hybrid fusion (human cytomegalovirus (HCMV)), P16790.
T1 chain: B1 chain
Conditions: remark: other sources report otherwise.

For assay [2], the target named is T2, human Ubc9 (SUMO-conjugating enzyme E2), yeast two-hybrid fusion (human, UniProt P63279 1-158).
T2 construct: also called GAD-Ubc9; LexA-Ubc9
The note with it: partners not purified.

For assay [3], the target named is B2. Conditions: partners not purified.

T2 sequence (P63279 whole entry, the tested form may be a part): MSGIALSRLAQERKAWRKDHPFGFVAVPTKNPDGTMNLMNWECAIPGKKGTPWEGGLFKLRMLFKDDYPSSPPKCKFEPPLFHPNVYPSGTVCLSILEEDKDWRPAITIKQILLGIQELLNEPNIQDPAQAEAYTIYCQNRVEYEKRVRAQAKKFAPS

In the case of B1, the β-gal expression in assay [1] worked out at 7640 Units.

As to B2, the β-gal expression in assay [2] amounted to 6920 Units.

Molecule B3 yielded a β-gal expression in assay [3] of 8240 Units.
